Reference: patent US20250042970A1 (AURINIA PHARMACEUTICALS, published 2025)
Changes are numbered by the printed parent chain. Values belong to the binder of their own block, whether it stands above or below them.

How the values were obtained:
[1] = target: T1, FLAG-tagged human BAFF (human, UniProt Q9Y275 134-285, limits assumed); assay: KinExA
T1 construct: used in BIACORE (Ex. 9) and KINEXA (Ex. 11); also called huBAFF
Method: (§1) Equilibrium measurements were performed using FLAG-tagged, recombinant huBAFF and huAPRIL ligands. Fixed ligand concentrations of human BAFF or human APRIL were incubated with serial dilutions of the variant BCMA ECD-Ig fusion polypeptides, and free ligand was detected in a KINEXA 3200 Instrument. variant BCMA ECD-Ig fusion polypeptides were first diluted in equilibration buffer (1×PBS, pH 7.4, 1 mg/ml BSA) to a range of concentrations from 10 nM to 100 fM. The linear portion of the dilution series was typically 2-fold. Ligands were diluted in equilibration buffer to fixed concentrations ranging from 5 to 20 pM and then incubated with the variant BCMA-Ig dilutions in total reaction volumes ranging from 4.5 to 15 ml. Samples were incubated at room temperature for 48-72 hours to reach equilibrium. For each data point, a fresh column of 850 μl of bead slurry coated with Variant BAv-238475-Ig was introduced into the KINEXA flow cell. Equilibrated samples ranging from 1 to 5 ml reaction volume were injected at a flow rate of 0.25 ml/min. […] The DyLight 649 fluorescent signal was detected using the red filter set (620/30 nanometer excitation filter, 670/40 nanometer emission filter, 645 nanometer dichroic filter) on the KinExA instrument and converted to a voltage signal that was directly proportional to the concentration of free ligand in the equilibrated sample.
(§2) Table 5 provides the selectivities of exemplary variant BCMA polypeptides with respect to BAFF and APRIL.

[2] = target: T2, FLAG-tagged recombinant human APRIL (human, UniProt O75888 105-250); assay: KinExA
T2 construct: KINEXA ligand; also called huAPRIL
T2 sequence: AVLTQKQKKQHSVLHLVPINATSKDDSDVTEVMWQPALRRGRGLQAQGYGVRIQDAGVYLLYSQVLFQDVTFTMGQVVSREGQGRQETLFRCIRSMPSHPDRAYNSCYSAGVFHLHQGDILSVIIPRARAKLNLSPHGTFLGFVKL
Method: as §1, §2

[3] = target: T1, FLAG-tagged human BAFF; assay: KinExA; remark: listed apart in the source
Method: as §1
(§3) The standard kinetic exclusion assays and data analyses described above were performed on protein preparations of various variant BCMA ECD-Ig fusion polypeptides, as well as Z-TACI-Ig and [S40G]huBCMA ECD-Ig fusion polypeptides. FIG. 8A, FIG. 8B, and Table 4 summarize the binding data for representative variant BCMA ECD-Ig polypeptides and controls in molar concentrations of huBAFF or huAPRIL determined by KINEXA binding assays.

[4] = target: T2, FLAG-tagged recombinant human APRIL; assay: KinExA; remark: listed apart in the source
Method: as §1, §3

[5] = target: T1, FLAG-tagged human BAFF; assay: BIACORE SPR
Source text: (§4) The standard kinetic assay measures binding kinetics of trimeric ligand (e.g., human BAFF, cynomolgus monkey APRIL, mouse BAFF, or mouse APRIL) coated on sensor chips and dimeric analytes (e.g., variant BCMA-Ig fusion proteins) in the mobile phase. […] For human BAFF, cynomolgus monkey APRIL, and mouse APRIL measurements, mouse monoclonal antibody (IgG1) anti-FLAG M2 (Sigma Aldrich, Cat. No. F1804) was immobilized on CM3 sensor chips (GE Healthcare, Cat. No. BR-1005-41) according to the manufacturer's protocol. Antibody was diluted to 30 μg/ml in immobilization buffer (10 mM pH 5±0.20; GE Healthcare; GE Healthcare, Catalog No. BR-1003-51). […] Unreacted sites were quenched with 35 μl of 1M ethanolamine-HCl, pH 8.5 (GE Healthcare, GE Healthcare, Cat. No. BR-1000-50). This procedure typically yielded 3,000-4,000 response units (RU) of coupled antibody.
(§5) The fusion polypeptides were diluted in HBS-EP buffer and flowed over ligand-coated sensor chips. The variant BCMA-Ig and surrogate control fusion proteins were injected at three concentrations (1.5 nM, 15 nM, and 150 nM at 30 μl/min for 2 minutes per association phase) in a single binding cycle, followed by a 20 minute incubation with HBS-EP buffer containing no protein at the same flow rate. A similar protocol was followed for Z-TACI-Ig, except that the injections were at 4.5 nM, 45 nM, and 450 nM.
(§6) The analyses described above were performed on protein preparations of representative variant BCMA ECD-Ig fusion polypeptides, as well as the Z-TACI-Ig and [S40G]huBCMA ECD-Ig control fusion polypeptides, and the data is presented in Table 1.

[6] = target: T3, FLAG-tagged cynomolgous APRIL (cynomolgus monkey, UniProt A0ACM8R0G4 110-250 (rhesus entry)); assay: BIACORE SPR
T3 construct: FLAG-tagged, expressed with TPA signal peptide; also called cyAPRIL
T3 sequence: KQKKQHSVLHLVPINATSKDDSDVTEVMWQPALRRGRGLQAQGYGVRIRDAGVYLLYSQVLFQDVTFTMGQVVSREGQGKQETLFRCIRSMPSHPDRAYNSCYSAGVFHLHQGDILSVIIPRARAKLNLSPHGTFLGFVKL
Source text: as §4, §5, §6

[7] = target: T1, FLAG-tagged human BAFF; assay: BIACORE SPR; remark: listed apart in the source
Method: (§7) For human BAFF, cynomolgus monkey APRIL, and mouse APRIL measurements, mouse monoclonal antibody (IgG1) anti-FLAG M2 (Sigma Aldrich, Cat. No. F1804) was immobilized on CM3 sensor chips (GE Healthcare, Cat. No. BR-1005-41) according to the manufacturer's protocol. Antibody was diluted to 30 μg/ml in immobilization buffer (10 mM pH 5±0.20; GE Healthcare; GE Healthcare, Catalog No. BR-1003-51). […] Unreacted sites were quenched with 35 μl of 1M ethanolamine-HCl, pH 8.5 (GE Healthcare, GE Healthcare, Cat. No. BR-1000-50). This procedure typically yielded 3,000-4,000 response units (RU) of coupled antibody.
as §5
(§8) Sequence optimization involved generating revertants from the variant BCMA ECD-Ig molecules using standard site-directed mutagenesis methods such as by SOEing as described herein above. Single as well as multiple revertants from twelve different variant-BCMA-pIg18 were generated, cloned in the pcDNA3.1 vector (Life Technologies, as described in Example 6), expressed and purified as described in Examples 6-8. The resulting proteins were assayed for their binding characteristics using Surface Plasmon Resonance as described in Example 9.

[8] = target: T3, FLAG-tagged cynomolgous APRIL; assay: BIACORE SPR; remark: listed apart in the source
Method: as §7, §5, §8

[9] = target: T1, FLAG-tagged human BAFF; assay: KinExA; remark: listed apart in the source
Method: as §1
The various fusion proteins described above were expressed and purified as described previously (Examples 2 and 3 for the CET1019AS based plasmids and Examples 7 and 8 for the pcDNA based plasmids). […] The BAv9-1-Ig Fc proteins typically exist in solution as a dimeric fusion protein. The purified fusion proteins were assayed for binding activity using BIACORE (Example 9) and KINEXA (Example 11) assays.

Selectivity for huBAFF (KD APRIL/KD BAFF) [1]: 0.6 ratio | Selectivity for huAPRIL (KD BAFF/KD APRIL) [2]: 1.7 ratio | fold improvement over control [3]: 400 fold | fold improvement over control [4]: 0.47 fold | fold improvement KD vs control [5]: 24.6 fold | fold improvement KD vs control [6]: 1.1 fold
B1: Variant BAv3-10-Ig (Fc fusion, human)
chain: AGQCSQNEYFDRLIRACIPCQLRCSSNTPPLTCQRYCNAGVTNSVKGTNAERKSSVECPPSPAPPVAGPSVFLFPPKPKDTLMISRTPEVTCVVVDVSHEDPEVQFNWYVDGVEVHNAKTKPREEQFNSTFRVVSVLTVVHQDWLNGKEYKCKVSNKGLPAPIEKTISKTKGQPREPQVYTLPPSREEMTKNQVSLTCLVKGFYPSDISVEWESNGQPENNYKTTPPMLDSDGSFFLYSKLTVDKSRWQQGNVFSCSVMHEALHNHYTQKSLSLSPGK
notes: domain: Fc; also called Variant 3-10-Ig; BAv3-10-PIg18

fold improvement over control [7]: 7.6 fold | fold improvement over control [8]: 1.3 fold
B2: Variant 50238494-Ig (Fc fusion, human)
chain: B1 chain with N7S, F10Y, R15H, I18V, T28N, L31A
notes: domain: Fc; also called Parent 11

Selectivity for huBAFF (KD APRIL/KD BAFF) [1]: 0.0075 ratio | Selectivity for huAPRIL (KD BAFF/KD APRIL) [2]: 134 ratio | fold improvement over control [3]: 75.3 fold | fold improvement over control [4]: 7.1 fold | fold improvement KD vs control [5]: 12.6 fold | fold improvement KD vs control [6]: 0.7 fold
B3: Variant BAv8-9-Ig (Fc fusion, human)
chain: B1 chain with R12H, I14L
notes: domain: Fc; also called Variant 8-9-Ig; BAv8-9-PIg18

fold improvement over control [7]: 6.4 fold | fold improvement over control [8]: 0.5 fold
B4: Variant 50238779-Ig (Fc fusion, human)
chain: B1 chain with G2Q, I14V, R15N, A16S, I18V, Q21R, T28N, R35H
notes: domain: Fc; also called Parent 1

fold improvement over control [7]: 5.5 fold | fold improvement over control [8]: 0.3 fold
B5: Variant 50237854-Ig (Fc fusion, human)
chain: B1 chain with R12H, Q21D, L22V, T28N, L31V
notes: domain: Fc; also called Parent 4

fold improvement over control [7]: 4.5 fold | fold improvement over control [8]: 0.2 fold
B6: Variant 50238504R-Ig (Fc fusion, human)
chain: B1 chain with F10Y, I18L, Q21H, L22V, L31A
notes: domain: Fc; also called Parent 8

fold improvement over control [7]: 10.1 fold | fold improvement over control [8]: 0.6 fold
B7: Variant 50239978-Ig (Fc fusion, human)
chain: B1 chain with G2R, Q6P, F10Y, R12S, I18V, T28N, L31V
notes: domain: Fc; also called Parent 12

Selectivity for huBAFF (KD APRIL/KD BAFF) [1]: 0.3 ratio | Selectivity for huAPRIL (KD BAFF/KD APRIL) [2]: 3.56 ratio | fold improvement over control [3]: 231 fold | fold improvement over control [4]: 0.68 fold | fold improvement KD vs control [5]: 9.8 fold | fold improvement KD vs control [6]: 1.5 fold
B8: Variant BAv1-12-Ig (Fc fusion, human)
chain: B1 chain with I14V, R15N
notes: domain: Fc; also called Variant 1-12-Ig

fold improvement over control [7]: 7.1 fold | fold improvement over control [8]: 0.4 fold
B9: Variant 50237847-Ig (Fc fusion, human)
chain: B1 chain with F10Y, R12H, I14L, I18V, P19S, Q21H, L22V, T28N, L31A, T32I
notes: domain: Fc; also called Parent 3

fold improvement over control [7]: 5.5 fold | fold improvement over control [8]: 0.5 fold
B10: Variant 50237844-Ig (Fc fusion, human)
chain: B1 chain with N7S, F10Y, T28N, L31V, T32I
notes: domain: Fc; also called Parent 7

fold improvement over control [7]: 5.5 fold | fold improvement over control [8]: 0.9 fold
B11: Variant 50239698-Ig (Fc fusion, human)
chain: B1 chain with G2R, F10Y, I14L, A16S, I18V, Q21H, L22V, T28N, L31V
notes: domain: Fc; also called Parent 5

fold improvement KD vs control [5]: 1.3 fold | fold improvement KD vs control [6]: 0.00024 fold
B12: BAv66-Ig (Fc fusion, human)
chain: B1 chain with R12H, L22G
notes: domain: Fc; also called Variant BAv66-Ig

fold improvement over control [7]: 9.3 fold | fold improvement over control [8]: 0.3 fold
B13: Variant 50239040-Ig (Fc fusion, human)
chain: B1 chain with G2R, Q6P, N7S, F10Y, R12H, A16S, I18V, L31V, N38D
notes: domain: Fc; also called Parent 10

fold improvement over control [7]: 6.4 fold | fold improvement over control [8]: 0.7 fold
B14: Variant 50240054-Ig (Fc fusion, human)
chain: B1 chain with G2Q, Q6P, L31V, A39T
notes: domain: Fc; also called Parent 2

Kd [9]: 0.291 pM
B15: BAv9-1-5L-pIg23 (Fc fusion, human)
chain: AGQCSQNEYFDHLIRACIPCQLRCSSNTPPLTCQRYCNAGVTNSVGGGGS
notes: domain: Fc; not shown: PIg23: PIg22 Fc with valine at 178 mutated to methionine
